The values below come from US20260049134A1 (UNIVERSITY OF FLORIDA RESEARCH FOUNDATION, published 2026).

The target of one assay is T1, IL13RA1.
T1 construct: coated protein in the ELISA; also called IL13RA1-Fc-His (R&D Systems)
T1 chain: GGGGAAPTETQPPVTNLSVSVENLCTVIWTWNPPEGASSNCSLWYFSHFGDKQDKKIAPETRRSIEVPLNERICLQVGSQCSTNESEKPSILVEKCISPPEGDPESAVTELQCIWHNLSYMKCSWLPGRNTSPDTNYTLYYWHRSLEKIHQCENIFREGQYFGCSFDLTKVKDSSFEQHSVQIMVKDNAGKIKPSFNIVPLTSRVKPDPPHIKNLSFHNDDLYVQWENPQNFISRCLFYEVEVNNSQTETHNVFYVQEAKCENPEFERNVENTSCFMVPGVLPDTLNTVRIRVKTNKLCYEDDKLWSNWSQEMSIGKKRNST
Put plainly: ELISA on coated IL13RA1-Fc-His, 150 ng IgG1; None 0.094. As to the method:
(§1) Recombinant purified ECDs (50-150 ng) of each putative target protein were coated, incubated with 150 ng of the indicated primary antibody, and binding was detected using a peroxidase-conjugated anti-human Fab secondary antibody. Heatmap represents averages of technical triplicates. (8B) Target validation via siRNA knockdown. H929 cells were transfected with siRNA pools targeting the putative antibody targets ICAM1, CADM1, and PTPRG. Cells were then subjected to cognate IgG binding analysis via flow cytometry. (NT, non-targeting siRNA).
(§2) ELISA ELISA was conducted as described previously. Briefly, 50-150 ng of antigen was coated overnight in half-area 96-well plates at 4° C., blocked with 3% BSA at 37° C. for 1 h, and 150 ng of chimeric rabbit/human IgG1 was added, incubating for 2 h at 37° C. […] After incubating at 37° C. for 15 min-1 h (depending on intensity of controls), data were acquired using a SpectraMax M5 plate reader (Molecular Devices).
In general terms: An ELISA detects its analyte on a solid surface through an enzyme-linked reagent.

Assay [1] deals with T2, ANXA1.
T2 construct: coated protein in the ELISA; also called ANXA1-His (R&D Systems)
T2 chain: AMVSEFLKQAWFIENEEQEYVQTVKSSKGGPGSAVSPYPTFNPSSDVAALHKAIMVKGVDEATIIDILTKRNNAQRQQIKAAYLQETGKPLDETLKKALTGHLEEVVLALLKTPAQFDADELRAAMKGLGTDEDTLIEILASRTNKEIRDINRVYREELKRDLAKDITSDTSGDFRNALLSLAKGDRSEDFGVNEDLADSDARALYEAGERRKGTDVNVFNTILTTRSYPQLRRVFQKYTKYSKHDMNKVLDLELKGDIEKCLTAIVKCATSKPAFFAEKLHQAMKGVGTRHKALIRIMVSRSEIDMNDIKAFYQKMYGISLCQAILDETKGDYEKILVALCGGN
The assay can be described thus: ELISA on coated ANXA1-His, 150 ng IgG1; None 0.098. As to the method:
as §1, §2

For assay [2], the target named is T2, ANXA1. The assay can be described thus: ELISA on coated ANXA1-His. As to the method:
as §1, §2

Assay [3] concerns the target T3, HHLA2 (B7-H7).
T3 construct: coated protein in the ELISA; also called HHLA2-Fc (R&D Systems)
T3 chain: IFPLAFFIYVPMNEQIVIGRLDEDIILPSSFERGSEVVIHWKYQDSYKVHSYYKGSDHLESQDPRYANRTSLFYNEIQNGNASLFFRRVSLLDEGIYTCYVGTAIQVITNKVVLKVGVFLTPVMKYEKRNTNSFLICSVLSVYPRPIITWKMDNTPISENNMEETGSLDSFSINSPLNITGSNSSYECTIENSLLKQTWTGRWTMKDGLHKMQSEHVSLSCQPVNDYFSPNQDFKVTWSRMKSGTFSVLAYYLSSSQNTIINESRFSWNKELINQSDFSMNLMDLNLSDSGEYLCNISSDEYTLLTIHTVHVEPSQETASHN
The assay can be described thus: ELISA on coated HHLA2-Fc, 150 ng IgG1; None 0.087. As to the method:
as §1, §2

Another assay deals with T4, APP.
T4 construct: His-tagged; coated protein in the ELISA; also called APP-His (Acro Biosystems)
The assay can be described thus: ELISA on coated APP-His, 150 ng IgG1; None 0.092. As to the method:
as §1, §2

The target of assay [4] is T5, GARS-His (Sino Biological) (human, UniProt P41250 37-739, limits assumed).
T5 construct: Bought; also called GARS1; glycyl-tRNA synthetase; not shown: His tag of the bought protein
T5 sequence: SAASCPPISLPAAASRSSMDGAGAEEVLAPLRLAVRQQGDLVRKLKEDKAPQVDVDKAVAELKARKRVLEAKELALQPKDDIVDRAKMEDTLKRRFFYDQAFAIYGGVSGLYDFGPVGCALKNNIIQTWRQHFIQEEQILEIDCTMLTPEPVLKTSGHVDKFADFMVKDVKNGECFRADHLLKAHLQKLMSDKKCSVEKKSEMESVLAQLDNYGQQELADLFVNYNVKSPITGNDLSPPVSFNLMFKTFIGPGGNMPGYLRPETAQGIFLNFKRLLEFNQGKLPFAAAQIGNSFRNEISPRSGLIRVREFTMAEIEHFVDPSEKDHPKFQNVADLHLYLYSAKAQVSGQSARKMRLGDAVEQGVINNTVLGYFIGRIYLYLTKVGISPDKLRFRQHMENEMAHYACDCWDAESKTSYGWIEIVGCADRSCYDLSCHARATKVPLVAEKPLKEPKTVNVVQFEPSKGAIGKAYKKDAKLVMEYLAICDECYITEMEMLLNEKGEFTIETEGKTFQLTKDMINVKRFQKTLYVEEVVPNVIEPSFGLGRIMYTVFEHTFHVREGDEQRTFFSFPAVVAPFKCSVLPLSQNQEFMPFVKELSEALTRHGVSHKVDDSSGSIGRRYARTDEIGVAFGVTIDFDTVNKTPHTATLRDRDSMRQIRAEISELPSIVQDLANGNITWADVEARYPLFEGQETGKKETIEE
Put plainly: ELISA on coated GARS-His, 150 ng IgG1; None 0.099. As to the method:
as §1, §2

In a further assay the target is T6, PTP4A3 (PRL-3).
T6 construct: coated protein in the ELISA; also called His-PTP4A3 (R&D Systems)
T6 sequence (chain, as listed by the source limits assumed): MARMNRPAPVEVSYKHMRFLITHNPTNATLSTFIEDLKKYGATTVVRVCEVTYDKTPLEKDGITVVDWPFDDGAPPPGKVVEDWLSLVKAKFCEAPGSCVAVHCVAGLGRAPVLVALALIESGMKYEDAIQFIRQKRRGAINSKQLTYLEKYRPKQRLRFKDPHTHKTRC
The assay can be described thus: ELISA on coated His-PTP4A3. As to the method:
as §1, §2

Assay [5] deals with T3, HHLA2 (B7-H7). The assay can be described thus: ELISA on coated HHLA2-Fc. As to the method: as §1, §2

B1: HW-113 chimeric rabbit-human IgG1 LA/LA/PG (antibody, V domains shown)
VH: QKQLVESGGGLVQPGGSLTLTCTVSGFSLNKYYMGWFRQAPGKGLEWIGVISRSGDTYYSSWAKGRFTISKASTTVDLRITSPTTEDTATYFCARDASSPGFHGDRLDLWGQGTLVTVSS
VL: SFVLTQPASVQVNLGQTVSLTCTADTLSRSYASWYQQKPGQAPVLLIYRDTSRPSGVPDRFSGSSSGNTATLTISGAQAGDEADYYCATSDGIGSNYLWVFGGGTQLTVTG
notes: Fc-silenced (L234A/L235A/P329G) IgG1, lambda; Alexa Fluor 647-labeled in single-step flow cytometry
Consider B1, for which the “ELISA Absorbance (405 nm-570 nm)” value with IL13RA1 turned out to be 0.086; in the assay with ANXA1 [1] it was 0.073; with HHLA2 (B7-H7) [3], 0.071; with APP, 0.074; in assay [4], 0.088. Moreover, the binding result in the assay with ANXA1 [2], with PTP4A3 (PRL-3) and with HHLA2 (B7-H7) [5] was “no binding (tested: 150 ng IgG1 per well)” each time.

B2: HW-16 chimeric rabbit-human IgG1 LA/LA/PG (antibody, V domains shown)
VH: QSLEESGGRLVTPGTPLTLTCTASGFSLSSYAMSWVRQAPGKGLEWIGTMPTGGGTYYASWAKGRFTISKTSTTVDLQITSPTTEDTATYFCAKHWNIWGPGTLVTISS
VL: DIVLTQTPSSTSTAVGDTVTINCRASQSIGRNLAWFQQKPGQPPKLLIYRASNLASGVPSRFKGSGSRTQFTLTISGVQREDAATYYCLGSYSSSDTAFGGGTELEILR
notes: Fc-silenced (L234A/L235A/P329G) IgG1, kappa; Alexa Fluor 647-labeled in single-step flow cytometry; Cluster C-45
With B2, the “ELISA Absorbance (405 nm-570 nm)” value came to 0.163 with IL13RA1; 0.111 in the assay with ANXA1 [1]; 0.092 with HHLA2 (B7-H7) [3]; 0.225 in the assay with APP; 0.718 in assay [4]. Also, the binding result with ANXA1 [2], in the assay with PTP4A3 (PRL-3) and with HHLA2 (B7-H7) [5] was “no binding (tested: 150 ng IgG1 per well)” throughout.
